Non-standard residues stand in square brackets, D forms with d. No end group written: not given here. *: point of attachment. FITC = O=C1OC2(c3ccc(O)cc3Oc3cc(O)ccc32)c2ccc(NC(=S)*)cc21; pS = N[C@@H](COP(=O)(O)O)C(=O)O
B1: FITC-pKID E126A (peptide, UniProt P15337-1 116-146, looked up)
peptide: {FITC}-DSVTDSQKRRAILSRRP[pS]YRKILNDLSSDAP
notes: source: synthetic peptide, bought: Biomatik
B2: FITC-pKID R135A (peptide, UniProt P15337-1 116-146, looked up)
peptide: {FITC}-DSVTDSQKRREILSRRP[pS]YAKILNDLSSDAP
notes: as for B1
B3: FITC-pKID R135G (peptide, UniProt P15337-1 116-146, looked up)
peptide: {FITC}-DSVTDSQKRREILSRRP[pS]YGKILNDLSSDAP
notes: also called A135G; source: synthetic peptide, bought: Biomatik
B4: FITC-pKID P132A (peptide, UniProt P15337-1 116-146, looked up)
peptide: {FITC}-DSVTDSQKRREILSRRA[pS]YRKILNDLSSDAP
notes: as for B1
B5: FITC-pKID P132G (peptide, UniProt P15337-1 116-146, looked up)
peptide: {FITC}-DSVTDSQKRREILSRRG[pS]YRKILNDLSSDAP
notes: also called A132G; source: synthetic peptide, bought: Biomatik
B6: FITC-pKID S143G (peptide, UniProt P15337-1 116-146, looked up)
peptide: {FITC}-DSVTDSQKRREILSRRP[pS]YRKILNDLSGDAP
notes: the text prints S143G; also called A143G; source: synthetic peptide, bought: Biomatik
B7: FITC-pKID S143A (peptide, UniProt P15337-1 116-146, looked up)
peptide: {FITC}-DSVTDSQKRREILSRRP[pS]YRKILNDLSADAP
notes: as for B1
B8: FITC-pKID T119G (peptide, UniProt P15337-1 116-146, looked up)
peptide: {FITC}-DSVGDSQKRREILSRRP[pS]YRKILNDLSSDAP
notes: the peptide has Gly in place of the natural Thr119; also called A119G; source: synthetic peptide, bought: Biomatik
B9: FITC-pKID K136A (peptide, UniProt P15337-1 116-146, looked up)
peptide: {FITC}-DSVTDSQKRREILSRRP[pS]YRAILNDLSSDAP
notes: as for B1
B10: FITC-pKID K136G (peptide, UniProt P15337-1 116-146, looked up)
peptide: {FITC}-DSVTDSQKRREILSRRP[pS]YRGILNDLSSDAP
notes: also called A136G; source: synthetic peptide, bought: Biomatik
B11: FITC-pKID E126G (peptide, UniProt P15337-1 116-146, looked up)
peptide: {FITC}-DSVTDSQKRRGILSRRP[pS]YRKILNDLSSDAP
notes: also called A126G; source: synthetic peptide, bought: Biomatik
B12: FITC-pKID T119A (peptide, UniProt P15337-1 116-146, looked up)
peptide: {FITC}-DSVADSQKRREILSRRP[pS]YRKILNDLSSDAP
notes: as for B1
B13: FITC-pKID wild-type (CREB residues 116-146, phosphorylated at Ser133) (peptide, UniProt P15337-1 116-146, looked up)
peptide: {FITC}-DSVTDSQKRREILSRRP[pS]YRKILNDLSSDAP
notes: also called wtFITCpKID; source: synthetic peptide, bought: Biomatik
B14: FITC-pKID R131A (peptide, UniProt P15337-1 116-146, looked up)
peptide: {FITC}-DSVTDSQKRREILSRAP[pS]YRKILNDLSSDAP
notes: as for B1
B15: FITC-pKID L128A (peptide, UniProt P15337-1 116-146, looked up)
peptide: {FITC}-DSVTDSQKRREIASRRP[pS]YRKILNDLSSDAP
notes: as for B1
B16: FITC-pKID R124A (peptide, UniProt P15337-1 116-146, looked up)
peptide: {FITC}-DSVTDSQKAREILSRRP[pS]YRKILNDLSSDAP
notes: as for B1
B17: FITC-pKID S121A (peptide, UniProt P15337-1 116-146, looked up)
peptide: {FITC}-DSVTDAQKRREILSRRP[pS]YRKILNDLSSDAP
notes: as for B1
B18: FITC-pKID I137A (peptide, UniProt P15337-1 116-146, looked up)
peptide: {FITC}-DSVTDSQKRREILSRRP[pS]YRKALNDLSSDAP
notes: as for B1
B19: FITC-pKID D140A (peptide, UniProt P15337-1 116-146, looked up)
peptide: {FITC}-DSVTDSQKRREILSRRP[pS]YRKILNALSSDAP
notes: as for B1
B20: FITC-pKID L138A (peptide, UniProt P15337-1 116-146, looked up)
peptide: {FITC}-DSVTDSQKRREILSRRP[pS]YRKIANDLSSDAP
notes: as for B1
B21: FITC-pKID S142A (peptide, UniProt P15337-1 116-146, looked up)
peptide: {FITC}-DSVTDSQKRREILSRRP[pS]YRKILNDLASDAP
notes: as for B1
B22: FITC-pKID R125A (peptide, UniProt P15337-1 116-146, looked up)
peptide: {FITC}-DSVTDSQKRAEILSRRP[pS]YRKILNDLSSDAP
notes: as for B1
B23: FITC-KID, not phosphorylated at Ser133 (CREB residues 116-146) (peptide, UniProt P15337-1 116-146, looked up)
peptide: {FITC}-DSVTDSQKRREILSRRPSYRKILNDLSSDAP
notes: 'pSer to Ser' in the text; also called ∆pS133; pS133S; source: synthetic peptide, bought: Biomatik
B24: FITC-pKID Y134A (peptide, UniProt P15337-1 116-146, looked up)
peptide: {FITC}-DSVTDSQKRREILSRRP[pS]ARKILNDLSSDAP
notes: as for B1
B25: FITC-pKID I137A (peptide, UniProt P15337-1 116-146, looked up)
peptide: {FITC}-DSVTDSQKRREILSRRP[pS]YRKALNDLSSDAP
notes: as for B1
B26: FITC-pKID L138A (peptide, UniProt P15337-1 116-146, looked up)
peptide: {FITC}-DSVTDSQKRREILSRRP[pS]YRKIANDLSSDAP
notes: as for B1
B27: FITC-pKID Y134A (peptide, UniProt P15337-1 116-146, looked up)
peptide: {FITC}-DSVTDSQKRREILSRRP[pS]ARKILNDLSSDAP
notes: as for B1
B28: FITC-pKID L128A (peptide, UniProt P15337-1 116-146, looked up)
peptide: {FITC}-DSVTDSQKRREIASRRP[pS]YRKILNDLSSDAP
notes: as for B1

biological target: T1, KIX domain of CBP (UniProt P45481 586-665); test: stopped-flow fluorescence (association kinetics); pseudo-first order conditions with KIX in excess over FITC-pKID; biphasic; kass,fast = gradient of the observed fast rate against KIX concentration; conditions: both partners purified
T1 sequence (P45481 586-665): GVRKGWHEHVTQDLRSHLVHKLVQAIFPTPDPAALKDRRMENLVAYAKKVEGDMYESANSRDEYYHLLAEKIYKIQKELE

Row | kon | Molecule
1 | 1.05e+07 M⁻¹ s⁻¹ | B1
2 | 1.05e+07 M⁻¹ s⁻¹ | B2
3 | 8e+06 M⁻¹ s⁻¹ | B3
4 | 7.7e+06 M⁻¹ s⁻¹ | B4
5 | 8.3e+06 M⁻¹ s⁻¹ | B5
6 | 6.3e+06 M⁻¹ s⁻¹ | B6
7 | 9.7e+06 M⁻¹ s⁻¹ | B7
8 | 7.1e+06 M⁻¹ s⁻¹ | B8
9 | 1.02e+07 M⁻¹ s⁻¹ | B9
10 | 8.3e+06 M⁻¹ s⁻¹ | B10
11 | 7.6e+06 M⁻¹ s⁻¹ | B11
12 | 7.3e+06 M⁻¹ s⁻¹ | B12

biological target: T1, KIX domain of CBP; test: stopped-flow fluorescence (association kinetics) + dissociation kinetics by competition; KdKin calculated as kdiss/kass,fast; conditions: both partners purified

Row | Kd | Molecule
13 | 110 ± 20 nM | B13
14 | 810 ± 140 nM | B14
15 | 2000 ± 160 nM | B15
16 | 60 ± 20 nM | B16
17 | 100 ± 20 nM | B17
18 | 9730 ± 1920 nM | B18
19 | 390 ± 50 nM | B19
20 | 4730 ± 1920 nM | B20
21 | 70 ± 10 nM | B21
22 | 340 ± 30 nM | B22
23 | 7500 ± 1300 nM | B23

biological target: KIX domain of CBP KIX domain (UniProt P45481); test: fluorescence anisotropy and stopped-flow kinetics; conditions: reference: unphosphorylated KID peptide (Ser133); sites S133
Sequence (P45481 whole entry, looked up, the tested form may be a part): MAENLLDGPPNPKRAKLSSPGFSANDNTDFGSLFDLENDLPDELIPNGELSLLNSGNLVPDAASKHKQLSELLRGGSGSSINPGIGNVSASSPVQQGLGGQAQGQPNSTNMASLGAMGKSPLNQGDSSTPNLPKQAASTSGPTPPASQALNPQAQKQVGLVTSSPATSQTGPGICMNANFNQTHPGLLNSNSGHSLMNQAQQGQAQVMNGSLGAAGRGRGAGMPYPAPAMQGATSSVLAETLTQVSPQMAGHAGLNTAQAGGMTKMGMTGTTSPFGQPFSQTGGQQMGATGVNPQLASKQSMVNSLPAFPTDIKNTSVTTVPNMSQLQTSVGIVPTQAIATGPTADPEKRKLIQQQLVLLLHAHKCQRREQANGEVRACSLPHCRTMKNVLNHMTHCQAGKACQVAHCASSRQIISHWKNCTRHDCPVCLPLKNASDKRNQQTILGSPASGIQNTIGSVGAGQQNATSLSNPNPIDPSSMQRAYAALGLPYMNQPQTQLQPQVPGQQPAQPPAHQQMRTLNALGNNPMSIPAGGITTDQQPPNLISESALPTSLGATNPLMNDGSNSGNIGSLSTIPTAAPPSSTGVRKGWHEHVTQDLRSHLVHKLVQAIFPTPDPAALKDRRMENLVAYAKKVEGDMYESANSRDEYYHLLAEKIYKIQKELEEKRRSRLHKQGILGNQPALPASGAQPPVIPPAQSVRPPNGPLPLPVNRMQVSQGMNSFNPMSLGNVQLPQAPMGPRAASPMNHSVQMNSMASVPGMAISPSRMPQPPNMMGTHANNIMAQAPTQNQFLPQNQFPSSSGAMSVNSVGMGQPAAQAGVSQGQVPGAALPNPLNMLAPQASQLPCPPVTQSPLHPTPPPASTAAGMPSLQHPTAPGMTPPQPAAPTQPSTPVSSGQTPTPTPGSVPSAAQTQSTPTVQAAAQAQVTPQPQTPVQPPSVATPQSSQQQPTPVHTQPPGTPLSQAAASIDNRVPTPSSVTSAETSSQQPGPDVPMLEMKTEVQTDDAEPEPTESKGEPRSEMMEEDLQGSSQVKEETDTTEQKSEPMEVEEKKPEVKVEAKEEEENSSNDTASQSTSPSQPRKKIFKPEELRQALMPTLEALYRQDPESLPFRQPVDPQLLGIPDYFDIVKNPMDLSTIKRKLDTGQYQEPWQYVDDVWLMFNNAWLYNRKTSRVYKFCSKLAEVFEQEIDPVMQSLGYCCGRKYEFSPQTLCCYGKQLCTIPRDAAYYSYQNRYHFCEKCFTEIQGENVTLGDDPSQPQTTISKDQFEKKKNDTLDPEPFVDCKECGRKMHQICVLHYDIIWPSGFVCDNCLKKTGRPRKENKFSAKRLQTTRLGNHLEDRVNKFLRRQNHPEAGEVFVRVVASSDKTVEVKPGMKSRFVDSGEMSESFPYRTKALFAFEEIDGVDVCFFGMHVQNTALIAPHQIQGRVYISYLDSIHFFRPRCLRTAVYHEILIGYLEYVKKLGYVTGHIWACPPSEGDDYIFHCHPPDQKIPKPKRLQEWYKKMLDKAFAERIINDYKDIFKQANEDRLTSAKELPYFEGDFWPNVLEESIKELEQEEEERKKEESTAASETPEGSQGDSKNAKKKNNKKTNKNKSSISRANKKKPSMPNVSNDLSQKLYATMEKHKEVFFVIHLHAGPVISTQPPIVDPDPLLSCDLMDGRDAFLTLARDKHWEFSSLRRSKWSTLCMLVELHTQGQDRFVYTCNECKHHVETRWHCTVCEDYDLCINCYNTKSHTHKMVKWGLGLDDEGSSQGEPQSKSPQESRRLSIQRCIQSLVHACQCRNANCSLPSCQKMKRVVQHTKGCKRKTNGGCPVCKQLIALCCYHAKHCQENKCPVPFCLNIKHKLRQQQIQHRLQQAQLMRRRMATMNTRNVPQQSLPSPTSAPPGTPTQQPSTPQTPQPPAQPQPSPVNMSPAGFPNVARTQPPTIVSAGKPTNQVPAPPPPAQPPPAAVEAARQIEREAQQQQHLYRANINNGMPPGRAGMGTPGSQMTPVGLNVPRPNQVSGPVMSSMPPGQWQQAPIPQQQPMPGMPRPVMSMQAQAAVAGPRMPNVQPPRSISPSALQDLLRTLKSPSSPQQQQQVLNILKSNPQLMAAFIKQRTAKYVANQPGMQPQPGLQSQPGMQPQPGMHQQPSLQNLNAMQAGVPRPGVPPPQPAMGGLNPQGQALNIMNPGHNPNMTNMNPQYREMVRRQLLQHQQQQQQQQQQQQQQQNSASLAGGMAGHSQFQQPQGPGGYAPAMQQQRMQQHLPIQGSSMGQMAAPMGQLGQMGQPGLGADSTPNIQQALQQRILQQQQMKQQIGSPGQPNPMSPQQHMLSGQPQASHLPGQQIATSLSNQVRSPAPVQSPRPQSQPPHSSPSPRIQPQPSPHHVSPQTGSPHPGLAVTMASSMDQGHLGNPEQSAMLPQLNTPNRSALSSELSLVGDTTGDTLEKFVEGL

Row | binding against the reference | Molecule
24 | stronger | CREB (KID / pKID region) 116-146 (from UniProt P15337-1) pSer133 pKID peptide

biological target: T1, KIX domain of CBP; test: stopped-flow fluorescence (association kinetics) + dissociation kinetics by competition; KdKin calculated as kdiss/kass,fast; conditions: both partners purified; remark: another data set of the same source

Row | Kd | Molecule
25 | 90 ± 10 nM | B1
26 | 240 ± 20 nM | B2
27 | 1260 ± 70 nM | B3
28 | 130 ± 10 nM | B4
29 | 390 ± 10 nM | B5
30 | 190 ± 20 nM | B6
31 | 70 ± 10 nM | B7
32 | 90 ± 10 nM | B8
33 | 90 ± 10 nM | B9
34 | 1270 ± 250 nM | B10
35 | 280 ± 30 nM | B11
36 | 120 ± 10 nM | B12

biological target: T1, KIX domain of CBP; test: dissociation kinetics by competition; FITC-pKID displaced from KIX by unlabeled competitor cMybTAD; kdiss = asymptote of the observed dissociation rate against competitor concentration; conditions: both partners purified

Row | koff | Molecule
37 | 0.97 s⁻¹ | B1
38 | 2.5 s⁻¹ | B2
39 | 10.1 s⁻¹ | B3
40 | 0.99 s⁻¹ | B4
41 | 3.22 s⁻¹ | B5
42 | 1.2 s⁻¹ | B6
43 | 0.71 s⁻¹ | B7
44 | 0.67 s⁻¹ | B8
45 | 0.94 s⁻¹ | B9
46 | 10.5 s⁻¹ | B10
47 | 2.09 s⁻¹ | B11
48 | 0.88 s⁻¹ | B12

biological target: T1, KIX domain of CBP; test: stopped-flow fluorescence (association kinetics); pseudo-first order conditions with KIX in excess over FITC-pKID; biphasic; kass,fast = gradient of the observed fast rate against KIX concentration; conditions: both partners purified; remark: another data set of the same source

Row | kon | Molecule
49 | 7.3e+06 M⁻¹ s⁻¹ | B13
50 | 9.5e+06 M⁻¹ s⁻¹ | B14
51 | 7.9e+06 M⁻¹ s⁻¹ | B15
52 | 8.4e+06 M⁻¹ s⁻¹ | B16
53 | 6.9e+06 M⁻¹ s⁻¹ | B17
54 | 4.5e+06 M⁻¹ s⁻¹ | B18
55 | 5.3e+06 M⁻¹ s⁻¹ | B19
56 | 2.8e+06 M⁻¹ s⁻¹ | B20
57 | 1.13e+07 M⁻¹ s⁻¹ | B21
58 | 6.3e+06 M⁻¹ s⁻¹ | B22
59 | 7.6e+06 M⁻¹ s⁻¹ | B23

biological target: T1, KIX domain of CBP; test: dissociation kinetics by competition; FITC-pKID displaced from KIX by unlabeled competitor cMybTAD; kdiss = asymptote of the observed dissociation rate against competitor concentration; conditions: both partners purified; remark: another data set of the same source

Row | koff | Molecule
60 | 0.81 s⁻¹ | B13
61 | 7.66 s⁻¹ | B14
62 | 15.7 s⁻¹ | B15
63 | 0.51 s⁻¹ | B16
64 | 0.71 s⁻¹ | B17
65 | 43.9 s⁻¹ | B18
66 | 2.06 s⁻¹ | B19
67 | 13.2 s⁻¹ | B20
68 | 0.83 s⁻¹ | B21
69 | 2.17 s⁻¹ | B22
70 | 56.7 s⁻¹ | B23

biological target: T1, KIX domain of CBP; test: fluorescence polarisation; equilibrium fluorescence anisotropy; KIX titrated into N-terminally FITC-labelled pKID peptide; biophysical buffer and conditions as in the accompanying article (ref. 42); KdEqub; conditions: both partners purified

Row | Kd | Molecule
71 | 110 nM | B13
72 | 1230 nM | B14
73 | 2490 nM | B15
74 | 60 nM | B16
75 | 120 nM | B17
76 | 21600 nM | B18
77 | 260 nM | B19
78 | 111000 nM | B24
79 | 6300 nM | B20
80 | 120 nM | B21
81 | 220 nM | B22
82 | 28700 nM | B23

biological target: T1, KIX domain of CBP; test: as above; conditions: both partners purified; remark: another data set of the same source

Row | Kd | Molecule
83 | 170 nM | B1
84 | 100 nM | B2
85 | 1160 nM | B3
86 | 70 nM | B4
87 | 440 nM | B5
88 | 90 nM | B6
89 | 70 nM | B7
90 | 80 nM | B8
91 | 100 nM | B9
92 | 2160 nM | B10
93 | 250 nM | B11
94 | 150 nM | B12

biological target: T2, KIX domain of CBP (UniProt P45481 586-666); test: fluorescence polarisation; equilibrium fluorescence anisotropy of N-terminally FITC-labelled pKID peptides with KIX; buffer and conditions as in the accompanying article (ref. 42); conditions: both partners purified
T2 construct: PDB 1KDX is the cited pKID/KIX structure and need not have the same limits
T2 sequence (P45481 586-666): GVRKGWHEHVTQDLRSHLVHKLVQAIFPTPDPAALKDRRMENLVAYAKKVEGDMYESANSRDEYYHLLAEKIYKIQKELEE

Row | fold increase of Kd against wild type | Molecule
95 | ~100 fold | B25
96 | > 10 fold | B26
97 | ~1000 fold | B27
98 | > 10 fold | B28

From paper PMC5770965, “pKID Binds to KIX via an Unstructured Transition State with Nonnative Interactions” (Biophysical Journal, 2017)
